Values joined by “and” are separate entries in the source; they are usually repeats but may differ in a detail not shown here. Equal entries are not always repeated.
Biological target: Pyruvate kinase M2 (mouse (endogenous in mouse skin)) (UniProt P52480)
Assay: not stated; detection of dimeric and tetrameric PKM2 protein levels in the skin from sham and skin flap mice on postoperative day 7

Sequence of Pyruvate kinase M2, P52480 1-531 (enzyme; other documents disagree on this pair) (P52480 whole entry): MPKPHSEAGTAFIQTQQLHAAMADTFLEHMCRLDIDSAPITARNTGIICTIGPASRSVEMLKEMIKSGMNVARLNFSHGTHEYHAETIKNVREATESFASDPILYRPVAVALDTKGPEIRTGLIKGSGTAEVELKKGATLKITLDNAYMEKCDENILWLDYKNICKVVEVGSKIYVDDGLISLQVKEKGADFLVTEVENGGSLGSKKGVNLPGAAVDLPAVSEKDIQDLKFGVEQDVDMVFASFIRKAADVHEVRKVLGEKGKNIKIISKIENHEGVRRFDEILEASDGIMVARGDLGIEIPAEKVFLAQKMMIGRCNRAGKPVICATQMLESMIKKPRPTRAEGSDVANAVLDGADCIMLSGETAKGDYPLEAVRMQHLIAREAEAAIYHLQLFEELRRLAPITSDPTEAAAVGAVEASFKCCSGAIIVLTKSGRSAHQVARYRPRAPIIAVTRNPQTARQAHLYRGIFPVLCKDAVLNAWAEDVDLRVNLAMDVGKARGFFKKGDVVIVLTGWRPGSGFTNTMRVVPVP

- stoichiometry N: 4 and 2
Substance: Pyruvate kinase M2, P52480 1-531 (enzyme; other documents disagree on this pair)

— article PMC11653614
